Experimental data published in patent US9994626B2, “Stable polypeptides binding to human complement C5” (Swedish Orphan Biovitrum AB (publ), priority 2013, dated 2018).

Assays:
[1] = 3 month stability test at 37° C., RPC; type: physicochemical
Text: The 2 weeks data from example 2 is included in Table VIII below to make the interpretation easier.

[2] = Accelerated stability study, 2 weeks at 37° C., SDS-PAGE and Reversed Phase HPLC (RPC)
Experimental: The stability was measured by the appearance of new variants after the stability testing by SDS-PAGE and Reversed Phase HPLC (RPC). In both analyses the initial sample and the one subjected to the stability study were run in parallel. For the SDS-PAGE, 7.5 μg protein was loaded into each well.
The purified proteins were formulated in 25 mM NaP/125 mM NaCl pH 7.0 and subjected to an accelerated stability study for 2 weeks at 37° C. The stability was measured by the appearance of new variants after the stability testing by SDS-PAGE and Reversed Phase HPLC (RPC). In both analyses the initial sample and the one subjected to the stability study were run in parallel. For the SDS-PAGE, 7.5 μg protein was loaded into each well.

[3] = after 2 weeks at 37° C., 25 mM NaP/125 mM NaCl pH 7.0

B1: PSI0383: C5 binding compound with N52S, D53E, D60E and loop [L2] substitutions D36R, D37Q, S39E (protein)
chain: AEAKYAKEVLEAWDEIDRLPNLTIEQWLAFINKLDRQPEQSSELLSEAKKLSESQAPKVEGSLAEAKEAANAELDSYGVSDFYKRLIDKAKTVEGVEALKDAILAALP
modifications: Modified bacterial sequence
For B1, the “3 months, 37° C. Main peak (% of total protein)” value ([1]; RPC, 3 months, 37° C.) was 59 % of total protein, the “proportion of protein in the original form after 3 months at 37° C. versus PSI0242 after 2 weeks” value ([1]; result in words) was “higher proportion of protein in the original form” and the “stability when compared with PSI0242” value ([2]; 2 weeks at 37° C., conclusion in words) was “increased stability”. The “Main peak (% of total protein)” value ([2]; RPC after 2 weeks at 37° C., 25 mM NaP/125 mM NaCl pH 7.0) was 91 % of total protein, the “2 weeks, 37° C. Main peak (% of total protein)” value ([2]; RPC, 2 weeks, 37° C., data from example 2) was 91 % of total protein and the RPC post peaks [2, 3] was 0. The RPC prepeaks [2, 3] was 0 and the SDS-PAGE bands [2, 3] was 1.
